Laboratory results as given in PMC6400186, “Structure of mammalian plasma fetuin-B and its mechanism of selective metallopeptidase inhibition” (IUCrJ, 2019).
Where a chain is given by its changes, count along the chain named. Names and notes keep the numbering of the source.

T1: mouse ovastacin (mouse, UniProt Q6HA09 85-435)
T1 sequence (looked up): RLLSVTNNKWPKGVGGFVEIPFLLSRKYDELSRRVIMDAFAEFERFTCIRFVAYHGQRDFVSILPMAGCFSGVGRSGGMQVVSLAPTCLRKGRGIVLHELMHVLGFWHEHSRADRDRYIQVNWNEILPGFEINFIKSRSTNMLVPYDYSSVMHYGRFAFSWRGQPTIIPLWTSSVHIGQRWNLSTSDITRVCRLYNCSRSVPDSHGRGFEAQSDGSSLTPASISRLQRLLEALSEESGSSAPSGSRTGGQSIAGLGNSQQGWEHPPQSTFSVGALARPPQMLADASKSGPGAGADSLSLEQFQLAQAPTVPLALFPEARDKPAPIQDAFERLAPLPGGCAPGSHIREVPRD

T2: human meprin β (human, UniProt Q16820 62-652)
T2 sequence (looked up): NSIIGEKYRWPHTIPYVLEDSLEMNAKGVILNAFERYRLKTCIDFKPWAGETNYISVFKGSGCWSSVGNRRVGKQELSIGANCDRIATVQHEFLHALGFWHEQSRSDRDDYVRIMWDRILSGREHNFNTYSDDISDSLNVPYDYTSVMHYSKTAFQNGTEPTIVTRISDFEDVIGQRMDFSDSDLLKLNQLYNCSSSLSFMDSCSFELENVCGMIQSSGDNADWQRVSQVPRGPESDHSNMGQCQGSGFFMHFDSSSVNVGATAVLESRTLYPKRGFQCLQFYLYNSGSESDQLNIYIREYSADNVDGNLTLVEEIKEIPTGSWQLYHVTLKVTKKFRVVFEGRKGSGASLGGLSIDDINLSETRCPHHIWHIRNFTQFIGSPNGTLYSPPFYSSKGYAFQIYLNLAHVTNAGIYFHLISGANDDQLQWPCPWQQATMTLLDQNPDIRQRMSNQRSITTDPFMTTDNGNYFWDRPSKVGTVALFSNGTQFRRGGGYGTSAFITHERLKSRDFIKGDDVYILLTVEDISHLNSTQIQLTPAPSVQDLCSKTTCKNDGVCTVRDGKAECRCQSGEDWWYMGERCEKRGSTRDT

B1: chimeric mutant mFBABA (other, mouse, UniProt P29699 19-136, looked up)
chain: APQGTGLGFRELACDDPEAEQVALLAVDYLNNHLLQGFKQVLNQIDKVKVWSRRPFGVVYEMEVDTLETTCHALDPTPLANCSVRQLTEHAVEGDCDFHILKQDGQFRVMHTQCHSTPVSKRKTHTTCPDCPSPIDLSNPSALEAATESLAKFNSKSPSKKYELVKVTKAMNQWVSGPAYYVEYLIKEAPCTKSQASCSLQHSDSEPVGICQGSTVQSSLRHVPLIQPVEKSVTVTCEFFESQPQPANANAVGPVPTANAALPADPPASVVVGPVVVPRGLSDHRTYHDLRHAFSPVASVESASGETLHSPKVGQPGAAGPVSPMCPGRIRHFKI
notes: mouse fetuin-A CY1 domain, UniProt P29699, residues A19-P136; mouse fetuin-B CY2 domain with linker, UniProt Q9QXC1, residues V145-Q269; mouse fetuin-A CTR domain, UniProt P29699, residues P254-I345; also called chimera of mouse fetuin-B with CY1 and CTR from mouse fetuin-A; source: adenovirus-infected COS-7 cells, purified (Ni-NTA)
B2: mouse fetuin-B (natural protein, UniProt Q9QXC1 19-388, looked up)
chain: RSPPAPPLPQRPLSPLHPLGCNDSEVLAVAGFALQNINRDQKDGYMLSLNRVHDVREHYQEDMGSLFYLTLDVLETDCHVLSRKAQKDCKPRMFYESVYGQCKAMFHINKPRRVLYLPAYNCTLRPVSKRKTHTTCPDCPSPIDLSNPSALEAATESLAKFNSKSPSKKYELVKVTKAMNQWVSGPAYYVEYLIKEAPCTKSQASCSLQHSDSEPVGICQGSTVQSSLRHVPLIQPVEKSVTVTCEFFESQAQVPGDENPAVTQGPQKLPQKNTAPTSSPSVTAPRGSIQHLPELDDEKPEESKGGSPEEAFPVQLDLTTNPQGDTLDVSFLYLEPGDKKLVVLPFPGKEQRSAECPGPEKENNPLVLPP
modifications: N-glycans at N40 and N139
notes: mouse fetuin-B, UniProt Q9QXC1; residues R29-P388 (molecule B) and Q28-P388 (molecule D) are modelled in the complex; also called mFB; murine fetuin-B; source: baculovirus-transduced High Five cells, purified (Ni-NTA); not shown: His6, C-terminal, kept
B3: mouse fetuin-B P155A (natural protein, UniProt Q9QXC1 19-388, looked up)
chain: B2 chain with P137A
notes: also called mFB_(P155A); source: ExpiCHO-S cells, purified (Ni-NTA)
B4: mouse fetuin-B D156A (natural protein, UniProt Q9QXC1 19-388, looked up)
chain: B2 chain with D138A
notes: also called mFB_(D156A); source: ExpiCHO-S cells, purified (Ni-NTA)
B5: mouse fetuin-B P155A+D156A (natural protein, UniProt Q9QXC1 19-388, looked up)
chain: B2 chain with P137A, D138A
notes: also called mFB_(P155A,D156A); double mutant; source: ExpiCHO-S cells, purified (Ni-NTA)

How the values were obtained:
Assay in all cases: enzyme inhibition assay (fluorogenic substrate), Ki by Morrison's equation; fetuin-B variant titrated against enzyme; 37°C, 150 mM sodium chloride, 50 mM Tris-HCl pH 7.4, 0.01% Brij 35, triplicate; enzyme and substrate 1.0 nM and 195 µM for astacin, 0.5 nM and 26 µM for meprin β, 0.7 nM and 26 µM for ovastacin
Conditions in all cases: both partners purified
[1] = biological target: T1, mouse ovastacin
[2] = biological target: T3, crayfish astacin (European freshwater crayfish Astacus …, UniProt P07584 50-251)
T3 construct: astacin, Astacus astacus, UniProt P07584; Carries a catalytic zinc ion; also called archetypal astacin; source: purified from the digestive fluid of the European freshwater crayfish Astacus astacus L
T3 sequence (P07584 50-251): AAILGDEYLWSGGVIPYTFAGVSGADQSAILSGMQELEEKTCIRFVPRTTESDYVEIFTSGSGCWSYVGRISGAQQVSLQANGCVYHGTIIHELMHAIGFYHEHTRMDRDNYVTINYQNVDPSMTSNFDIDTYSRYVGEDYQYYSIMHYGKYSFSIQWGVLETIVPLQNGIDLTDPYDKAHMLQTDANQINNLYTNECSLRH

[3] = biological target: T2, human meprin β

Binder	loss of inhibitory potency (change of Ki) against wild-type mouse fetuin-B [1]	loss of inhibitory potency (change of Ki) against wild-type mouse fetuin-B [2]	loss of inhibitory potency (change of Ki) against wild-type mouse fetuin-B [3]	Ki [1] [pM]	Ki [2] [pM]	Ki [3] [pM]
B1	> 4 orders of magnitude	> 3 orders of magnitude	> 4 orders of magnitude			
B2				46	100	81
B3	~2 orders of magnitude	~1 orders of magnitude	~1 orders of magnitude			
B4	~4 orders of magnitude	~2 orders of magnitude	~2 orders of magnitude			
B5	4 orders of magnitude	2 orders of magnitude	4 orders of magnitude			
